Reference: the RNAGym collection of RNA variant scans (doi:10.1073/pnas.2313332121)

B1: TPR t1 (parent)
chain: GACCAAUCUGCCCUCAGAGCUCGAGAACAUCUUCGGAUGCAGAGGAGGCAGGCUUCGGUGGCGCGAUAGCGCCAACGUCCUCAACCUCCAAUGCAUCCCACCACAUGAUGAUGCCUGAAGAGCCUUGGUUUUUUG

Variants of: B1
Assay: polymerase ribozyme fitness, log enrichment relative to wild type (log ratio); higher = more active; in vitro selection for triplet polymerase activity
Outline: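 Fitness compares each genotype's enrichment to that of the wild type on a logarithmic scale, averaging replicates with inverse-variance weights. The logarithm is base 2. Enrichment came from Illumina sequencing of input and output libraries after one triplicate round of in vitro selection, which included frozen incubation at −7 °C, of PCR-built, transcribed mutant libraries of each subunit of a heterodimeric triplet polymerase ribozyme. Only genotypes with ≥10 input reads and ≥1 read per output were kept.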

Variant	polymerase ribozyme fitness (log ratio)
GAUCAAUCUGCCCUCAGAGCUCGAGAACAUCUUCGGAUGCAGAGGAGGCAGGCUUCGGUGGCGCGAUAGCGCCAACGUCCUCAACCGCCAAUGCAUCCCACCACAUGAUGAUGCCUGAAGAGCCUUGGUUUUUUG	-0.293
GAUCAAUCUGCCCUCAGAGCUCGAGAACAUCUUCGGAUGCAGAGGAGGCAGACUUCGGUGGUGCGAUAGCGCCAACGUCCUCAACCUCCAAUGCAUCCCACCACAUGAUGAUGCCUGAAGUGCCUUGGUUUUUUG	1.52
GACAAAUCUGCCUUCAGAGCUCGAGUACAUCUUCGGAUGCAGAUGAGGAAGGCUUCGGUGGCGCGAUAGCGCCAACGUCCUCAACCUCCAAUGCAUCCCACCAUAUGAUGAUGCCUGAAGAGCCUUGGUUUUUUG	-6.34
GAUCAAUCUGCCCUCAGAGCUCGAGAACAUCUUCGGAUGCAGAGGAGGCAGGCUUCGGUGGCGCGAUAGCGCCAACGUCCUCAACCUCCAAUGCAUCCCACCACAUGAUGAUGCCUAAAUAGCCUUGGUUUUUUG	-2.21
GACAAAUAUGCCCUCAGAGCUCGAGAACAUCUUCGGUUGCAGAGGAGGCAGGCUUAGGUGGCGCGAUAGCGCCAACGUCCUCAACCUCCAAUGCAUCCCACCACAUGAUGAUGCCUGAAGAGCCUUGGUUUUUUG	-1.7
GAUCAAGCUGCCCUCAGAGCUCGAGAACAUCUUCGGAUGCAGAGGAGGCAGGCUUCGGUGGCGCGAUAGCGCCAACGUCCUCAUCCUCCAAUGCAUCCCAUCACAUGAUUAUGCCUGAAGAGCCAUGGUUUUUUG	-3.16
GAUCAAUCUGCCCUCAGAGCUCGAGAACAUCUUCGGAUGCAGAGGAGGCAGGCUUCGGUGGCGCGAUAUCGCCAACGUCCUCAACCUCCAAUGCAUCCCACCACGUGAUGAUGCCUCAAGAGCCUUGGUUUUUUG	-4.98
GAUCAAUCUGCCCUCAGAGCUCGAGAACAUCUUCGGAUGCAGAGGAGGCACGCUUCGAUGGCUCGAUAGCGCCAACGUCCUCAACCUCCAAUGCAUCCCACCACAUGAUGAUGCGUGAAGAGCCUUGGUUUUUUG	-5.47
GACAAAUCUGCCCUCAGAGCUCGAGAACAUCUUCGGAUGCAGAGGAGGCAGGCUUCGGUGGCGCGAUAGCGCCAACGUCCUCAACCUCCAAUGCAUCCCACCACAUGAUGAUGCCUGAAGAGCCUUGGUUUUUUG	-1.19
GACAAAUCUGCCCUCAGAGCUCGAGAACAUCUUCGGAUGCAGAGGAGGCAGGCUUCGGUGGAGCGAUAGCGCCAACGUCCUCAACCUCCAAAGCAUCCCACCACAUGAUGAUGCCUGAAGAGCCUUGGAUUUUUG	-5.8
GACAAAUCUGGCCUCAGAGCUCGAGAACAUCUUCGGAUGCAGAGGAGGCAGGCUUCGGUGGCGCGAUAGCGCCAACGUCCUCAACCUCCAAUGCAUCCCACCACAUGAUGAUGCCUGAAGAGCCUUGGUUUUUUG	-1.18
GAUCAACCUGCCCUCAGAGCUCGAGAACAUCUUCGGAUGCAGAGGAGGCAGGCUUCGGUGGCGCGAUAGCGCCAACGUCCUCAACAUCCAAUGCAUCCCACCACAUGAUGAUGCCUGAAGGGCCUUGGUUUUUUG	2.02
GAUCAAUCAGCCCUCAGAGCUCGAGAACAUCUUCGGAUGCAGAGGAGGCAGGCUUCGGUGGCGCGAUAGCGCCAACGUCCUCAACCUCCAAUGCAUCCCACCACAUGAUGAUGCCUGAAGAGCCUUGGUUUUUUG	0.706
GAUCAAUCUGCCCUCAGAGCUCGAGAACAUCUUCGGAUGCAGAGGAGGCAGGCUUCGGUGGCGCGAUAGCGCCAACGUCCUCAACCUCCAAUGCAUCCCACCACAAGAUGAUGCCUGAAGAGCCUUGGUUUUUUG	-0.258
GAUCAAUCUGCCCUCAGAGCUCGAGAACAUCUUCGGAUGCAGAGGAGGCAGGCUUCGGUGACGCGAUAGCGCCAACGGCCUCAACCUCCAAUGCAUCCCACCACAUGAUGAGGCCUGAAGAGCCUUGGUUUUUUG	-0.547
GAUCAAUCUGCCCUCAGAGCUCGAGAACAUCUUCGGAUGCAGAGGAGGCAGGCUUCGGUGGCGCGAUAGCUCCAACGUCCUCAACCUCCAAUGCAUCCCACCACAUGAUGAUGCCUGAAGAGCCGUGGUUUUUUG	-1.58
GACAGAUCUGCCCUCAGAGCUCGAGAACAUCUUCGGAUGCAGAGGAGGCAGGCUUCGGUGGCGCGAUAGCGCCAACGUCCUCAACCUCCAAUGCAUCCCACCACAUGAUGAUGCCUGAAGAGCCUUGGUUUUUUG	-1.02
GAUCAAUCUGCCCUCAGAGCUCGAGAACAUCUUCGGAUGCAGAGGAUGCAGGCUUCGGUGGCGCGAUAGCGCCAACGUCCUCAACCUCCAAUGCAUCCCACCACGUGAUGAUGCCUGAAGAGCCUUGGUUUUUUG	-4.56
GAUCAAUCUGCCCACAGAGCUCGAGAACAUCUUCGGAUGCAGAGGAGGCAGGGUUCGGUGGCGUGAUAGCGCCAACGUCCUCAACCUCCAAUGCAUCCCACCACAUGAUGAUGCCUGAAAAGCCUUGGUUUUUUG	0.544
GACAAAUCUGCCCUCAGAGCUCGAGAACAUCUUCGGAUGCAGAGGAGGCAGGCUUCGGUGGCGCGAUAGCGCCAACGUCCUCAACCUCCAAUGCUUCCCACCACAUGAUGAUGCCUGAAGAGCCUUGGUUUUUUG	-1.38
GACAAAUCUGCCCUCAGAGCUCGAGAACAUCUUCGGAUGCAGAGGAGGCAGGGUUCGGUGGCGCGAUAGCGCCAACAUCAUCAACCUCCAAUGCAUCCCACCACAUGAUGAUGCCUGAAGAGCCUUGGUUUUUUG	-5.1

Variant	polymerase ribozyme fitness (log ratio)
GAUCAAUCUGCCCUCAGAGCUCGAGAACAUCUUCGGAUGCAGAGGAGGCAGGCUUCGGUGGCGCGAUAGCGCCAACGUCCUCAACCUCCAAUGCAUCCCACCACAUGAUUAUGCCUGAAGAGCCUUGGUUUUUUG	-1.54
GAUCAAUCUGCCCUCAGAGCUCGAGAACAUCUUCGGAUGCAGAGGAGGCAGGCUUCGGUGACGCGAUAGCGCCAACGUCCUCAACCUCCAUUGCAUCCCACCACAUGAUGAUGCCUGAAGAGCCUUGGUUUUUUG	-1.66
GACAAAUCUGCCCUCAGAGCUCGAGAACAUCUUCGGAUGCAGAGGAGGCGGGCUUCGGUGGCGCGAUAGUGCCGACGUCCUCACCCUCCAAUGCAUCCCACCACAUGAUGAUGCAUGAAGAGCCUUGGUUUUUUG	-5.12
GAUCAAUCCGCCCUCAGAGCUCGAGAACAUCUUCGGAUGCAGAGGAGGAAGGCUUCGGUGGCGCGAUAGUGCCAAAGUCCUCAACCUCCAAUGCAUCCCACCACAUGAUGAUGCAUGAAGAGCCUUGGUUUUUUG	-0.878
GAUCAAUCUGCCCUCAGAGCUCGAGAACAUCUUCGGAUGCAGAGGAGGCAGGCCUCGGUGGCGCGAUAGCGCCAACGUCCUCAACCUCCAAUGCAUCCCACCAAAUGAUGAUGCCUGAAGAGCCUUGGUUCUUUG	-2.52
GAUCAACCUGCCCUCAGCGCUCGAGAACAUCUUCGGAUGCAGAGGAGGCAGACUUCGGUGGCGCGAUAGCGCCAACGUCCUCAACCUCCAAUGAAUCCCACCACAUGAUGAUGCCUGAAGAGCCUUGGUUUUUUG	-5.04
GAUCAAUCUGCCCUCAGAGCUCGAGAACAUCUUCGGAUGCAGAGGAGACAGGCUUCGGUGGCGCGAUGGCGCCAACGUCCUCAACCUCCAAUGCAUCCCACCACAUGAUGAUGCCUGAAGAGCCUUGGUUUUUUG	-3.84
GAUCAAUCUGCCCUCAGAGCUCGAGAACAUCUUCGGAUGCAGAGGAGGCAGGCUUCGGUGGCGCGAUAGCUCCAACGUCCUCAACCUCCAAUGCAUCCCACCACAUGAUGAUGCCUGAAGAGCCUUGGUUUUUUG	-0.48
GAUCAAUCUGCCCUCAGAGCUCGAGAACAUCUUCGGAUGCAGAGGAGGCAGGCUUCGGUGGCGCGAUAGCGCCAACGUCCUCAACCUCCAAUGCAUCCCACCACAUGAUGAUGCCUGAAAAGCCUUGGUUUUUUG	0.234
GACAAAUCUGGCCUCAGAGCUCGAGAACAUCUUCGGAUGCAGACGAGGCAGGCCUCGGUGGCGCGAUAGCGCCAACGUCCUCAACCUCCAAUGCAUCCCACCACAUGAUGAUGCCUGAAGAGCCUUGGUUUUUUG	-1.66
GACAAAUCUGCCCUCAGAGCUCGAGAACAUCUUCGGAUGUACAGGAGGCAGUCUUCGGUAGCGCGAUAGCGCCAACGUCCUCAACCUCCAAUGCAUCCCACCACAUGAUGAUGCCUGAUGAGCCUUGGAUUUUUG	-5.41
GAUCAAUCUGCCCUCAGAGCUCGAGAACAUCUUCGGAUGCAGAGGAGGCAGGCUCCGGUGGCGCGAUAGCGCCAACGUCCUCAACCUCCAAUGCAUCCCACCACAUGAUGAUGCCUGAACAGCCUUGGUUUUUUG	-1.02
GAUCAAUCUGCCCUCAGAGCUCGAGAACAUCCUCGGAUGCAGAGGAGGCAGGCUUCGGUGGCGCGAUAGCGCCAACGUCCUCAACCUCCAAUGCAUCCCAUCACAUGAUGAUGCCUGAACAGCCUUGGUUUUUUG	-0.584
GAUCAAUCUGCCCUCAGAGCUCGAGAACAUCUUCGGAUGCAGAGGAGGCAGGCUUCGGUGGCGCGAUAGCGCCAACGCCCUCAACCUCCAAUGCAUCCCACCACUUGAUGAUGCCUGAACAGCCUUGGUUUUUUG	-1.99
GACAAAUCUGCCCUCAGAGCUCGAGAACAUCUUCGGAUGCAGAGGAGGCAGGCUUCGGUGGCGCGAUAGCGCCCACGUCCUCAACCUCCAAUGCAUCCCACCACAUGAUGAUGCCUGAAGAGGCUUGGUUUUGUG	0.795
GAUCAAUCUGCCCCCAGAGCUCGAGAACAUCUUCGGAUGCAGAGGAGGCAGGCUUCGGUGGUGCGAUAGCGCCAACGUCCUCAACCUCCAAUGCAUCCCACCACAUGAUGAUGCCUGGAGAGCCUUGGCUUUUUG	-2.13
GAUCAAUCUGCCCUCAGAGCUCGAGAACAUCUUCGGAUGCAGAGGAGGCAGGCUUCGGUGUCGCGAUAGCGCCAACGGCCUCAACCUCCAAGGCAUCCCACCACAUGAUGAUGCCUGAAAAGCCUUUGUUUUUUG	-2.24
GAUCAAUCUGCCCUCAGAGCUCGAGAACAUCUUCGGAUGCAGAGGAGGCAGGCUUCGGUGGCGCGAUACCGCCAACGUCCUCAACCUGCAAUGCAGCCCACCACAUGAUGAUGCCUGAAGAGCCUUGGUUUUUUG	-2.75
GAUCAAUCUGCCCUCAGAGCUCGAGAACAUCUUCGGAUGCAGAGGAGGCAGGCUUCGGUGGCACGAUAGCGCCAACGUCCUCAACCUCCAAUGCAUCCCACCACAUGAUGAUGCCUGAAGAGCCUUGGUUUUUUG	-1.72
GAUCAAUCUGCCCUCAGAGCUCGAGAACAUCUUCGGAUGCAGAGGAGGCAGGCUUCGGUGGCGCGAUAGCGCCAACGUCCGCAACCUCCAAUGCAUCCCACCACAUGAUGAUGCCUGAAGAGCCUUGGUUUUUUG	-4.04
GAUCAAUCUGCCCUCAGAGCUCGAGAACAUCUUCGGAUGCAGAGGAGCCAGGCUUCGGUGUCGCGAUAGCGCCAACGUCCUCAACCUCCAAUGCAUCCCACCACAUGAUGAUGCCUGAAGAGCCUUGGUUUUUUG	-0.989
